Laboratory results: PMC10177328, “High Intrinsic Oncogenic Potential in the Myc-Box-Deficient Hydra Myc3 Protein”

Molecular target: T1, Hydra Myc3 bHLH-LZ (p13);Hydra Max bHLH-LZ (p13) (Hydra (strain  in the text …, UniProt A0A0H5FMB4;D0EM50 108-197;29-120, |))
T1 sequence 1: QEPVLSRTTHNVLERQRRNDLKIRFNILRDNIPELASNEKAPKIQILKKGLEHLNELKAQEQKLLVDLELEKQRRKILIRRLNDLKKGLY
T1 sequence 2: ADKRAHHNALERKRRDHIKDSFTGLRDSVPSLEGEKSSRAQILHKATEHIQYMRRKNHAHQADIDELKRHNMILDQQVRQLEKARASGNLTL
Assay: EMSA; 0-2000 nM protein; EMSA: 10 mM Tris-HCl pH 7.5, 0.5 mM EDTA, 65 mM KCl, 5 mM MgCl2, 1 mM DTT, 100 ug/mL BSA, 10% glycerol, 25 C, 45 min; native 6% PAGE
Settings: protein: recombinant;recombinant, tags: N-terminal initiator Met, C-terminal His6;N-terminal initiator Met, copies: 1;1, label: 32P, blunt

B1: myc2 promoter E-box 18-mer (dsDNA)
DNA 1: ATAGCTCACGTGTCAATA
DNA 2: TATTGACACGTGAGCTAT
  Kd: 16.3 nM
